How the values were obtained:
[1] = molecular target: SH3P2 (Arabidopsis thaliana) (UniProt Q8VWF1); assay: mass photometry; SH3P2 at 75 nM; 25 mM HEPES pH 7.5, 200 mM NaCl, 25 mM KH2PO4 pH 8.0; monomer to dimer
[2] = molecular target: SH3P2 (Arabidopsis thaliana) (UniProt Q8VWF1); assay: mass photometry; SH3P2 at 100 nM; 25 mM HEPES pH 7.5, 200 mM NaCl, 25 mM KH2PO4 pH 8.0; monomer to dimer

percent of dimers at 75 nM [1]: 60%
percent of dimers at 100 nM [2]: 85%
stoichiometry N [2]: 2
Substance: SH3P2 (from UniProt Q8VWF1 1-368) (natural protein)

Source: article PMC11112126
